Reference: paper doi:10.1101/794511 (bioRxiv, 2019)

B1: Gsx2^N253A amino acids 167-305 containing the mutated homeodomain, His-tagged (domain or fragment)
chain: not shown
B2: Ascl1 amino acids 92-231 containing the bHLH domain, His-tagged (domain or fragment)
chain: MRCKRRLNFSGFGYSLPQQQPAAVARRNERERNRVKLVNLGFATLREHVPNGAANKKMSKVETLRSAVEYIRALQQLLDEHDAVSAAFQAGVLSPTISPNYSNDLNSMAGSPVSSYSSDEGSYDPLSPEEQELLDFTNWF

Assays:
[1] = target: B2; assay: native gel or EMSA
[2] = target: the molecule itself; assay: native gel or EMSA

Binder	binding result [1]	binding result [2]
B1	binds	
B2		binds
